From US20090155285A1 (Eli Lilly, published 2009)

T1: mature human TGF-β2 (human, UniProt P61812 303-414)
T1 sequence: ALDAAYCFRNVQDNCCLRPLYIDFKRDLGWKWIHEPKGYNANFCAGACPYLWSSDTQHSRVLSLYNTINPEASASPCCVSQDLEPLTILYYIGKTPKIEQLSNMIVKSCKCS

T2: mature human TGF-β3 (human, UniProt P10600 301-412)
T2 sequence: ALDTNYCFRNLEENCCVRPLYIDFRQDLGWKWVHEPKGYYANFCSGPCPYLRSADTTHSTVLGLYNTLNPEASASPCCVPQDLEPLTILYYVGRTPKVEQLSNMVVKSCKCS


Experiments:
[1] = biological target: T1, mature human TGF-β2; assay: cell-based or functional assay
[2] = biological target: T2, mature human TGF-β3; assay: cell-based or functional assay
[3] = biological target: T3, mature human TGF-β1 (human, UniProt P01137 279-390); assay: cell-based or functional assay
T3 sequence (P01137 279-390 limits assumed): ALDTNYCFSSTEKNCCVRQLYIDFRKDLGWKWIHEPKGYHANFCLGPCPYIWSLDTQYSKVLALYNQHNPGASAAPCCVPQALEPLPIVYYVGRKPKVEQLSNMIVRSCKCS

[4] = biological target: T1, mature human TGF-β2; assay: BIAcore 2000 SPR, antibody captured on Protein A, TGF-β injected
Procedure: (§1) Alternate methods of measuring kinetic constants are known, for example: affinity of an invention antibody for TGF-β1 (R&D Systems, Cat # 240-B/CF), TGF-β2 (RDI, Cat #RDI-1035), and TGF-β3 (RDI, Cat # RDI-1036/CF) is measured by BIAcore® 2000. Binding affinity measurements for full-length monoclonal antibodies of the invention are determined using Biacore. Except as noted, all reagents and materials are purchased from BIAcore® AB (Upsala, Sweden). All measurements made at room temperature. Samples are dissolved in HBS-EP buffer (150 mM sodium chloride, 3 mM EDTA, 0.01% (w/v) surfactant P-20, and 10 mM HEPES, pH 7.4). Recombinant Protein A is immobilized on all four flow cells of a CM4 sensor chip at a level of 400-450 response units (RUs) using an amine coupling kit. Binding is evaluated using multiple analytical cycles. Each cycle is performed at a flow rate of 50 μL/min consisting of the steps: injection of 12 μL of antibody at 0.5 μg/mL, injection of 250 μL of TGF-β1 (starting at 5 nM and using two-fold serial dilutions to 0.13 nM for each cycle, with two injections for each concentration) followed by either a short (5 min) or long (120 min) delay for dissociation, and regeneration using two injections of 50 μL of 10 mM glycine hydrochloride, pH 1.5. Association and dissociation rates per cycle are made by fitting the biosensor data from a simple association model using ClampXP (Center for Biomolecular Interaction Analysis, Univ. of Utah) to extract the kₒₙ and koff rate constants; the equilibrium binding constant Kd is calculated from Kd=koff/kₒₙ.
(§2) When mAbs are measured using the described assay, the results are as stated in Table 2 below.

[5] = biological target: T2, mature human TGF-β3; assay: as above
Procedure: as §1, §2

[6] = biological target: T3, mature human TGF-β1; assay: as above
Procedure: as §1, §2

[7] = biological target: T3, mature human TGF-β1; assay: KinExA 3000, equilibrium in solution
Procedure: (§3) A KinExA 3000 instrument (Sapidyne Inst. Inc.) measures binding kinetics. Briefly, antigen is covalently-coupled to azlactone beads and the binding of an invention free Fab to the beads is detected on the instrument. […] After incubation, free Fab in each equilibrated sample is determined on KinExA 3000 per manufacturer instructions. Kd values are determined using KinExA 3000 software. To measure kₒₙ, individual Fabs at 2 nM are mixed with 0-240 nM of antigen using the injection method according to manufacturer's instructions, and the unbound Fab is detected. The resulting data is used to calculate the kₒₙ with KinExA 3000 software. The koff is calculated using the formula K_{d=k}off/kₒₙ. Affinity data obtained under KinExA© conditions for Fab embodiments binding TGF Beta 1 are shown below in Table 1.

[8] = biological target: T3, mature human TGF-β1; assay: KinExA 3000, calculated from Kd and kon
Procedure: as §3

[9] = biological target: T3, mature human TGF-β1; assay: KinExA 3000, solution phase, antigen-coupled beads
Procedure: as §3

| HT-2 cell neutralization assay, IC50 (Mean ng/ml) [1] [ng/mL] | HT-2 cell neutralization assay, IC50 (Mean ng/ml) [2] [ng/mL] | HT-2 cell neutralization assay, IC50 (Mean ng/ml) [3] [ng/mL] | Kd [4] [pM] | koff [4] [s⁻¹] | kon [4] [M⁻¹ s⁻¹] | Kd [5] [pM] | koff [5] [s⁻¹] | kon [5] [M⁻¹ s⁻¹] | Kd [6] [pM] | koff [6] [s⁻¹] | kon [6] [M⁻¹ s⁻¹] | Kd [7] [pM] | koff [8] [s⁻¹] | kon [9] [M⁻¹ s⁻¹] | Binder |
| --- | --- | --- | --- | --- | --- | --- | --- | --- | --- | --- | --- | --- | --- | --- | --- |
| 574 | 100 | 215 | – | – | – | – | – | – | – | – | – | – | – | – | 1D11.16 (antibody, from another filing, V domains shown) VH: QVQLQQSGPELVRPGASVKLSCKASGYIFITYWMNWVKQRPGQGLEWIGQIFPASGSTNYNEMFEGKATLTVDTSSSTAYMQLSSLTSEDSAVYYCARGDGNYALDAMDYWGQGTSVTVSS VL: DIVLTQSPASLAVSLGQRATISCRASESVDSYGNSFMHWYQQKSGQPPKLLIYLASNLESGVPARFSGSGSRTDFTLTIDPVEADDAATYYCQQNNEDPLTFGAGTKLEIK |
| 6.14 | 5.22 | 0.44 | 0.265 | 6e-06 | 2.42e+07 | 0.851 | 1.53e-05 | 1.76e+07 | < 0.2 | 6.71e-06 | > 4e+07 | – | – | – | mAb 12.4 (antibody, human IgG4 S228P, kappa, V domains shown, Full-length monoclonal antibody, made by linking the Fab to an IgG4 Fc region) VH: QVQLVQSGAEVKKPGASVKVSCKASGYTFTSYWMNWVRQAPGQGLEWMGQIFPALGSTNYGEMFEGRVTMTTDTSTSTAYMELRSLRSDDTAVYYCARGIGNYALDAMDYWGQGTLVTVSS VL: DIQMTQSPSSLSASVGDRVTITCRASESVDWWGNSFMHWYQQKPGKAPKLLIYLASNLESGVPSRFSGSGSGTDFTLTISSLQPEDFATYYCQQNIEDPLTFGGGTKVEIKR |
| – | – | – | – | – | – | – | – | – | – | – | – | 15 | 0.00031 | 2.1e+07 | Fab 3.A (Fab, V domains shown, The mAb was made by linking the Fab to an IgG4 Fc region, so the mAb's chains are named; The heavy chain entry also holds the Fc, which is not in the Fab) VH: QVQLVQSGAEVKKPGASVKVSCKASGYTFTSYWMNWVRQAPGQGLEWMGQIFPASGSTNYGEMFEGRVTMTTDTSTSTAYMELRSLRSDDTAVYYCARGIGNYALDAMDYWGQGTLVTVSS VL: DIQMTQSPSSLSASVGDRVTITCRASESVDFWGNSFMHWYQQKPGKAPKLLIYLASNLESGVPSRFSGSGSGTDFTLTISSLQPEDFATYYCQQNIEDPLTFGGGTKVEIKR |
| – | – | – | – | – | – | – | – | – | – | – | – | 0.22 | 5.5e-06 | 2.6e+07 | Fab 12.8 (Fab, V domains shown, The mAb was made by linking the Fab to an IgG4 Fc region, so the mAb's chains are named; The heavy chain entry also holds the Fc, which is not in the Fab) VH: QVQLVQSGAEVKKPGASVKVSCKASGYTFTSYWMNWVRQAPGQGLEWMGQIFPALGSTNYNEMFEGRVTMTTDTSTSTAYMELRSLRSDDTAVYYCARGIGNYALDAMDYWGQGTLVTVSS VL: DIQMTQSPSSLSASVGDRVTITCRASESVDWYGNSFMHWYQQKPGKAPKLLIYYASNLESGVPSRFSGSGSGTDFTLTISSLQPEDFATYYCQQNAEDPLTFGGGTKVEIKR |
| – | – | – | – | – | – | – | – | – | – | – | – | 1.55 | 5.2e-05 | 3.4e+07 | Fab 12.4 (Fab, V domains shown, The mAb was made by linking the Fab to an IgG4 Fc region, so the mAb's chains are named; The heavy chain entry also holds the Fc, which is not in the Fab) VH: QVQLVQSGAEVKKPGASVKVSCKASGYTFTSYWMNWVRQAPGQGLEWMGQIFPALGSTNYGEMFEGRVTMTTDTSTSTAYMELRSLRSDDTAVYYCARGIGNYALDAMDYWGQGTLVTVSS VL: DIQMTQSPSSLSASVGDRVTITCRASESVDWWGNSFMHWYQQKPGKAPKLLIYLASNLESGVPSRFSGSGSGTDFTLTISSLQPEDFATYYCQQNIEDPLTFGGGTKVEIKR |
| – | – | – | – | – | – | – | – | – | – | – | – | 0.28 | 6e-06 | 2.2e+07 | Fab 4.17 (Fab, V domains shown, The mAb was made by linking the Fab to an IgG4 Fc region, so the mAb's chains are named; The heavy chain entry also holds the Fc, which is not in the Fab) VH: QVQLVQSGAEVKKPGASVKVSCKASGYTFTSYWMNWVRQAPGQGLEWMGQIFPFSGSTNYNEMFEGRVTMTTDTSTSTAYMELRSLRSDDTAVYYCARGIGNYALDAMDYWGQGTLVTVSS VL: DIQMTQSPSSLSASVGDRVTITCRASESVDFWGNSFMHWYQQKPGKAPKLLIYLASNLESGVPSRFSGSGSGTDFTLTISSLQPEDFATYYCQQNAEDPLTFGGGTKVEIKR |
| 3.34 | 6.78 | 0.59 | 0.473 | 1.11e-05 | 2.8e+07 | 0.82 | 1.28e-05 | 1.56e+07 | < 0.2 | 7.93e-06 | > 5e+07 | – | – | – | mAb 12.7 (antibody, human IgG4 S228P, kappa, V domains shown, Full-length monoclonal antibody, made by linking the Fab to an IgG4 Fc region) VH: QVQLVQSGAEVKKPGASVKVSCKASGYTFTSEWMNWVRQAPGQGLEWMGQIFPALGSTNYNEMYEGRVTMTTDTSTSTAYMELRSLRSDDTAVYYCARGIGNYALDAMDYWGQGTLVTVSS VL: DIQMTQSPSSLSASVGDRVTITCRASESVDFYGNSFMHWYQQKPGKAPKLLIYLASNLESGVPSRFSGSGSGTDFTLTISSLQPEDFATYYCQQNIEDPLTFGGGTKVEIKR |
| – | – | – | 1 | 1.22e-05 | 2.29e+07 | 0.54 | 1.12e-05 | 1.85e+07 | < 0.2 | 7.92e-06 | > 5e+07 | – | – | – | mAb 12.8 (antibody, human IgG4 S228P, kappa, V domains shown, Full-length monoclonal antibody, made by linking the Fab to an IgG4 Fc region) VH: QVQLVQSGAEVKKPGASVKVSCKASGYTFTSYWMNWVRQAPGQGLEWMGQIFPALGSTNYNEMFEGRVTMTTDTSTSTAYMELRSLRSDDTAVYYCARGIGNYALDAMDYWGQGTLVTVSS VL: DIQMTQSPSSLSASVGDRVTITCRASESVDWYGNSFMHWYQQKPGKAPKLLIYYASNLESGVPSRFSGSGSGTDFTLTISSLQPEDFATYYCQQNAEDPLTFGGGTKVEIKR |
| – | – | – | – | – | – | – | – | – | – | – | – | 0.09 | 3.4e-07 | 3.7e+06 | Fab 12.7 (Fab, V domains shown, The mAb was made by linking the Fab to an IgG4 Fc region, so the mAb's chains are named; The heavy chain entry also holds the Fc, which is not in the Fab) VH: QVQLVQSGAEVKKPGASVKVSCKASGYTFTSEWMNWVRQAPGQGLEWMGQIFPALGSTNYNEMYEGRVTMTTDTSTSTAYMELRSLRSDDTAVYYCARGIGNYALDAMDYWGQGTLVTVSS VL: DIQMTQSPSSLSASVGDRVTITCRASESVDFYGNSFMHWYQQKPGKAPKLLIYLASNLESGVPSRFSGSGSGTDFTLTISSLQPEDFATYYCQQNIEDPLTFGGGTKVEIKR |
| 51.4 | 16.9 | 2.62 | < 4 | 0.000218 | > 5e+07 | 0.926 | 2.38e-05 | 2.9e+07 | < 2 | 0.000107 | > 5e+07 | – | – | – | mAb 3.A (antibody, human IgG4 S228P, kappa, V domains shown, Full-length monoclonal antibody, made by linking the Fab to an IgG4 Fc region) VH: QVQLVQSGAEVKKPGASVKVSCKASGYTFTSYWMNWVRQAPGQGLEWMGQIFPASGSTNYGEMFEGRVTMTTDTSTSTAYMELRSLRSDDTAVYYCARGIGNYALDAMDYWGQGTLVTVSS VL: DIQMTQSPSSLSASVGDRVTITCRASESVDFWGNSFMHWYQQKPGKAPKLLIYLASNLESGVPSRFSGSGSGTDFTLTISSLQPEDFATYYCQQNIEDPLTFGGGTKVEIKR |
| 3.65 | 15.8 | 0.42 | 0.529 | 9.86e-06 | 2.37e+07 | 1.53 | 2.84e-05 | 2.17e+07 | < 0.2 | 9.71e-06 | > 5e+07 | – | – | – | mAb 4.17 (antibody, human IgG4 S228P, kappa, V domains shown, Full-length monoclonal antibody, made by linking the Fab to an IgG4 Fc region) VH: QVQLVQSGAEVKKPGASVKVSCKASGYTFTSYWMNWVRQAPGQGLEWMGQIFPFSGSTNYNEMFEGRVTMTTDTSTSTAYMELRSLRSDDTAVYYCARGIGNYALDAMDYWGQGTLVTVSS VL: DIQMTQSPSSLSASVGDRVTITCRASESVDFWGNSFMHWYQQKPGKAPKLLIYLASNLESGVPSRFSGSGSGTDFTLTISSLQPEDFATYYCQQNAEDPLTFGGGTKVEIKR |
